In US20150231236A1, “METHODS FOR TREATING PATIENTS WITH HYPERCHOLESTEROLEMIA THAT IS NOT ADEQUATELY CONTROLLED BY MODERATE-DOSE STATIN THERAPY” (Regeneron Pharmaceuticals, Inc., priority 2014, published 2015):

Experiments:
[1] = as reported elsewhere; cited from earlier work
[2] = test system: patients with hypercholesterolemia at high CV risk not adequately controlled with atorvastatin (20 mg or 40 mg); test: Example 2: safety, treatment-emergent adverse events in pooled treatment groups
Experimental: For the pooled data, three treatment groups are formed by combining treatment arms regardless of the atorvastatin doses as follows:
(2) EZE treatment group: pooling EZE+atorva 20 mg arm and EZE+atorva 40 mg arm;

[3] = test system: patients with hypercholesterolemia at high CV risk not adequately controlled with rosuvastatin (10 mg or 20 mg); conditions: in vivo
[4] = test system: patients with hypercholesterolemia at high CV risk not adequately controlled with atorvastatin (20 mg or 40 mg); test: Example 2: anti-mAb316P anti-drug antibody (ADA) status; format: in vivo, human
[5] = Safety Population, pooled treatment groups
[6] = of the five ADA positive patients

**Q.** With `CC(C)c1nc(N(C)S(C)(=O)=O)nc(-c2ccc(F)cc2)c1/C=C/[C@@H](O)C[C@@H](O)CC(=O)O` [rosuvastatin, reference compound] as the compound, how does the “reduction in LDL-C levels when switching from atorvastatin 40 mg per day to rosuvastatin 40 mg per day” value [1] read?
**A.** ~8%

**Q.** What does the source list for “mAb316P: human anti-PCSK9 antibody; heavy chain SEQ ID NO:5, light chain SEQ ID NO:9”?
**A.** General Allergic TEAEs (SMQ Hypersensitivity) [2, 5]: 2 (1.9%) patients (%); SOC Injury, poisoning and procedural complications [2, 5]: 15 (14.4%) patients (%); SOC Musculoskeletal and connective tissue disorders [2, 5]: 24 (23.1%) patients (%); SOC Neoplasms benign, malignant and unspecified (incl cysts and polyps) [2, 5]: 3 (2.9%) patients (%); SOC Nervous system disorders [2, 5]: 10 (9.6%) patients (%); TEAEs [2, 5]: 68 (65.4%) patients (%); Treatment-emergent SAEs [2, 5]: 4 (3.8%) patients (%); Treatment-emergent injection site reactions (ISRs) [2, 5]: 3 (2.9%) patients (%); Treatment-emergent neurologic disorders [2, 5]: 3 (2.9%) patients (%); discontinued study treatment early due to a treatment emergent adverse event (TEAE) [2, 5]: 7 (6.7%) patients (%); Treatment-emergent cardiovascular events adjudicated positively ([2]; Safety Population, pooled treatment groups, ischemia driven coronary revascularization procedure): 2 (1.9%) patients (%); TEAE Back pain ([2]; pooled mAb316P group): 7 patients; TEAE Headache ([2]; pooled mAb316P group): 4 patients; TEAE Hypertension ([2]; pooled mAb316P group): 5 patients; TEAE Muscle spasms ([2]; pooled mAb316P group): 4 patients; TEAE influenza ([2]; pooled mAb316P group): 3 patients; TEAE nasopharyngitis ([2]; pooled mAb316P group): 5 patients; TEAE upper respiratory tract infection ([2]; pooled mAb316P group): 5 patients; TEAE urinary tract infection ([2]; pooled mAb316P group): 3 patients; 2 consecutive calculated LDL-C measurements below 25 mg/dL [3]: 13 (12.6%) patients (%); General Allergic TEAEs [3]: 11 (10.7%) patients (%); SOC General disorders and administration site conditions [3]: 15 (14.6%) patients (%); SOC Immune system disorders [3]: 1 (1.0%) patients (%); SOC Psychiatric disorders [3]: 5 (4.9%) patients (%); SOC Respiratory, thoracic and mediastinal disorders [3]: 7 (6.8%) patients (%); SOC Skin and subcutaneous tissue disorders [3]: 8 (7.8%) patients (%); TEAE accidental overdose [3]: 3 patients; TEAE arthralgia [3]: 4 patients; TEAE constipation [3]: 2 patients; TEAE diarrhea [3]: 2 patients; TEAE dizziness [3]: 3 patients; TEAE fatigue [3]: 3 patients; TEAE hypokalaemia [3]: 2 patients; TEAE laceration [3]: 3 patients; TEAE local swelling [3]: 2 patients; TEAE myalgia [3]: 4 patients; TEAE nasopharyngitis [3]: 4 patients; TEAE nausea [3]: 3 patients; TEAE pain in extremity [3]: 2 patients; TEAE sciatica [3]: 2 patients; TEAEs [3]: 58 (56.3%) patients (%); Treatment-emergent SAEs [3]: 6 (5.8%) patients (%); Treatment-emergent cardiovascular events adjudicated positively [3]: Zero; Treatment-emergent neurocognitive disorders [3]: 1 (1.0%) patients (%); Treatment-emergent neurologic disorders [3]: 2 (1.9%) patients (%); discontinued study treatment early due to a treatment emergent adverse event [3]: 5 (4.9%) patients (%); tolerability [3]: well tolerated; Treatment-emergent ADA positive responses ([4]; 5 of 99 patients in the pooled mAb316P add-on group): 5.1%; overall immunogenicity ([4]; in vivo): immunogenicity was low; positive mAb316P-neutralizing antibody status ([4]; of patients with positive ADA status): One and one; treatment-emergent ADA: persistent responses [4, 6]: three; treatment-emergent ADA: transient response [4, 6]: one
